Test results reported in the DeepSol protein solubility set.

Test: soluble on expression in E. coli; label from the status in PepcDB or PDB records
For “MTTAVQPSDTTGFGGGPAGSRASDLIQFQEIMSESAESSSSSSQTNVSAANTLPRESNGQNYADDPSHVYTNIREIEELNSRPVPPTPRADAQPRRDLLNGWFEYETDVGRTFFFNKETGKSQWIPPRFIRTPAQVQEFLRATRTNLDTTCSFQGSSTSSSEEQKENKMRESLADDDRKSQLIEDEEVFDEVCDDVDEQSSPVIDLQSRPLPIPFSDSFTDDEDEDDVKPIEGSIASDSDFDEEPVPTSSRKASTASGVMMPHPYAHVSSFQSTFPRAKNEDTDKLASYVIPPDANETSKTPTAIRVRRPSPTNLRSVSFQNKCTVLKNVPMPQVLPTTSSSFDHHPQYHSNTPDRPILMEDSADFTPSSRCEERRGSGDGREPVRTIRCGDLERSENDEPAEKVVKPKKREWITNYMYLTTAHLILYKDQKSAEKHGKHYDAPQGVWDLRGASVTWYQDNRDVQKKKQRKYIQLELCNTKKYLLRGPNDTEAVEWYKSLEEVVAKLPSPGSSNQPMIDVTNGVARNPSYIGSTRPLSHALIPISRSMRRRDDPMSQSAIETVSTSVSTDEPRPSKETIIEKLRRFFRTRPTVESLKEKGIYKPEPVFGSTLSAICQHENSLVPKFIRVITEVIESKGLETDGIYRVSGNLSAVQKIRCQADQDNYKALVSEEDIHVLTGALKLFFRELTDPLFPISLHKEYTSAMQMPNATTRFKKFEELLSRLPNENRETLKMLLRHLNRVASHSSQNRMQQHNLAIVFGPTLFHNGDGAVNLATKNKKAGKKAKPSKKEETQATPVQSNSHLAFSMIMQSQIVQYLLESANKFDILKAPVNIGR”, the “soluble on expression in E. coli” value was “not soluble”.
With “MTTEAPVRVEDKLYQNRYLVDVGNAHIKVKPHTKPSPQLLALLKVCPAHCYELNSNGQVEVTPDGCVECGTCRVLAEGGGDIEWSYPRGGYGVLFKFG” the “soluble on expression in E. coli” value was “not soluble”.
With “MTTEQEFEKVELTADGGVIKTILKKGDEGEENIPKKGNEVTVHYVGKLESTGKVFDSSFDRNVPFKFHLEQGEVIKGWDICVSSMRKNEKCLVRIESMYGYGDEGCGESIPGNSVLLFEIELLSFRELE” the “soluble on expression in E. coli” value was “soluble”.
In the case of “MTTFILSHNLQVQSKDVPPFETQVLADGIVSNSSAIISATVIQHPHWIIELTSNLPPNDMAVELVKSWKQLRSKLGQSADHVILALGGRKDSLAAPGAPLQEGFWGVDVVETHDEEAFLQAINWDALKSNRPEDGVFEISSNN”, the “soluble on expression in E. coli” value is reported as “not soluble”.
For “MTTHSAHLLRRLNPYCAQALAGAATLCQTRAHAEITVEHWLLKLLEQGEGDITVIARRYEWDMDSLWQGLLSHLDTLPRTVQGKPQLSAALQQLIKNAWLDASLQENADAVRSVHLMAALIATPSLLVAEAAWPLLSLSTTQLQRLLPLLDNQSDERPEVQQAAALADSPVNLTDEAATVTSASGQPQLNDALQAALDKFTLDVTAKARANQIDPIFGRDSEIRQMIDILSRRRKNNPILVGEPGVGKTALVEGLALRIADGNVPDSLKTVSVRTLDLGLLQAGAGVKGEFEQRLKNVIEAVQQSPSPVLLFIDEAHTIIGAGNQAGGADAANLLKPALARGELRTIAATTWSEYKQYFERDAALERRFQMVKVDEPDDDTACLMLRGLKERYATHHGVHILDAAITAAVTLSRRFLTGRQLPDKAVDLLDTAGARVRMSIDTLPTALMEINAELAALAMEQQAIEQDLLLLPNVSSTRLPEIEQRRAALAVGQHTLEQQYKEEKRLTTLIIEARQDIANAAHLVALQEELVQIQGNAPLLSLDVDVRTVAAVIADWTGVPLGSLLKDEQTNLLSLENRLGERVIGQDAALGALAQRLRAAKTGLTSENGPLGVFLLVGPSGIGKTETALALADSLFGGEKSLITINLSEYQEAHTVSQLKGSPPGYVGYGQGGVLTEAVRKRPYSVVLLDEVEKAHRDVLNLFYQVFDRGFMRDGEGREIDFRNTVIVMTANLGSDHLMQLLDEQPDAPDSTLHELLRPILRDHFQPALLARFQTLIYRPLQVDALKRIVAIKLNQVAQRLHCHYGLSCQIEDSLTDTLVAACLLPDTGARNIDSLLNQQILPVLSQQLLSRMSEQQRTTSLTLGWHEEDGITLTFEGE”, the “soluble on expression in E. coli” value was “not soluble”.
With “MTTLIISDLHLDPLRPVVTELFLRFLREQVSGADALYILGDLFEIWIGDDMPSEVADMVVAALRTHADAGTPLYFMPGNRDFLVGADYAARAGFRILPDPCVVDLYGEPTLLLHGDLLCTDDIAYQAFRAQTRDPEFIAQFLTQTLSARLAFAQQARLASHAHQSGLKQENDSTQFEKITDVVPADVAAMFACYGVNRMIHGHTHRPALHMLQVAECACTRVVLGDWYQQGSVLCVDADGLVLEQLLLP” the “soluble on expression in E. coli” value was “not soluble”.
For “MTTLNELKHGLEEAWESLAEGWHRLRERAAGALTRFKPGASVPAVPRRQEDFYLASPTWALLAGDVYEDDRKVVIRLEVPGMEKEDFNLELRGDLLIVQGEKRLERETSEGRYRVLQCAYGHFHRVIPLPAEVVADRVQASYRNGVLKIELPKAAARLPRNIEIPVRLEHHHHHH”, the “soluble on expression in E. coli” value was “not soluble”.
With “MTTLNKENIQKEFKERLSEDELLNCMRCGFCLPTCPTYIQSGYKESHSPRGRIALMKAVVDGLIEPDEDVENTLNVCLGCRACEPVCPSGVNYGHLLEEARDIINQNKKFSMPVRAVRKVVFEELFPHQNRMRTLTGLIGFYQRSGLQTITHKTGIMKLFPETLATMDLVLPKVPKMKAMKDRPTFLPAESTKKKQVAFFTGCLMDTMFLETNNATMKLLQLAGCDIVIPKTQSCCGALHGHAGEKSGAKELAKRNIKAFEDLNIDYIITNAGGCGAYLVDYDYLLKDDPQWAGRAKQFVSKIKDITAILVELDFHKRNDLRLTPQIITYQDSCHLRNVMRTSSEPRMLLEAIQGATYREMKDADRCCGSAGIYNIVHSELSMEFLDYKMDRVHETDATTIVTANPGCLLQMKLGIEREGLSHKMRGIHIVDLLLEAIETNS” the “soluble on expression in E. coli” value was “not soluble”.
For “MTTQSTLQSVPALGTHPASGSNPSRAETREQLSKASYDLLVIGGGILGISTAWHAAQSGLRVAVVDAGDFAGATSSASSKLLHGGLRYLQTGAVKLVAENHFERRAVSRQVAPHLANPLTFYLPVYKGGPHGAAKLGAGVFAYSALSAFGDGVGHLLSPAKAAQDVPELRTDNLKAVAVYGDDQMNDARMALMTVRAAVESGAVVLNHAEVTGLRFTGGRVTGAELKDRLSGDEFGVNARLVLNATGPWVDHLRRMEDPAAAPSIRLSKGAHLVLKRTAPWKAALATPIDKYRITFALPWEDMLLLGTTDEEFEGDPADVAVNDKDITQILDEAAFSIRDQQLDRDLITYSFAGLRVLPGGPGDTAKAKRETVVTEGRGGMLSVAGGKWTTFRHIGRTVMKKLEALPGHPLGDDFEPIASLPKKLPLPGVANPRAVAHRLLVDGSAPGPRMAADTARHLATHYGSLAFDIARLANESPELARRVHPDAPEIWAQVVWARDNEWAETADDVLRRRTTLTIRGLATDDVRAQVQDVLDKKLEHHHHHH”, the “soluble on expression in E. coli” value was “not soluble”.
In the case of “MTTSNIKALIPSELRKVWEFILDIENYDAWRSDLSKTEVVSDKQFIEYTKDGYPTTFTVTLVEPYRRWEFDMQNSNMSGHWIGVFTDKGNETEIDFTECVEAKKMLMKPFVKSYLKKQQAQFVADIMKNFSLEHHHHHH”, the “soluble on expression in E. coli” value is reported as “soluble”.
For “MTTTEVKMFTFNSVAENTYILYDSTGEAALIDCGCMDGSEEQQLLRFVQEQQLTVKLLLNTHLHFDHAWGNGFAAKTFGLPVLTHRAEVEEMPSPSKQLAAFGMFGTMDEPPIQYIAPGDVLQLGESIIKVLFVPGHSPGHLAFYCPQAQAVFTGDALFAGDMGRTDLWGGSYELLKKSIRTELLPLPDDTVVYPGHGPTSTIAYERTNNPFLD”, the “soluble on expression in E. coli” value was “not soluble”.
With “MTTWLYAGVDGGGTGCRARIYQANGTPLGQGHGGRANLLLGVENVRQSVDNAIAQALKHSGLSPDDVSRLKVGLALASAEHRTAYDTFLALPHPYATQVLNTDALGACLAVNQGKDAGVVIAGTGSCGLAWQNQTITAYGGHEFPISDQGSGARLGLAALQHTHDVLQGWRAPSALSQSIDDFFCASAAHALAANTLDALQTFSQQAKPGDYAQFARHVFDCAQQDDAVSHALLAQTASEICLLLAAVARHASPRLSLMGSIGLHIRPWLPDEWQSQLAVPMGDALDGARLIACHDYALYSHPLLEHHHHHH” the “soluble on expression in E. coli” value was “not soluble”.
With “MTVEERSNTAKVDILGVDFDNTTMLQMVENIKTFFANQSTNNLFIVTANPEIVNYATTHQAYLELINQASYIVADGTGVVKASHRLKQPLAHRIPGIELMDECLKIAHVNHQKVFLLGATNEVVEAAQYALQQRYPNISFAHHHGYIDLEDETVVKRIKLFKPDYIFVGMGFPKQEEWIMTHENQFESTVMMGVGGSLEVFAGAKKRAPYIFRKLNIEWIYRALIDWKRIGRLKSIPIFMYKIAKAKRKIKKAK” the “soluble on expression in E. coli” value was “not soluble”.
